Reference: US20200181597A1, “Composition and Application of Arginine-depleting Agents for Cancer, Obesity, Metabolic Disorders, and Related Complications and Comorbidities” (THE HONG KONG POLYTECHNIC UNIVERSITY, priority 2018, published 2020)

Assays:
[1] = Normal lean mice on chow diet, 500U at 10-day intervals for 4 weeks; type: in vivo, C57BL/6J male mice
From the text: Thus, we treated normal lean C57BL/6J male mice fed an ordinary chow diet via i.p. injection of 500U N-ABD094-rhArg (SEQ ID NO: 50) at 10-day intervals for 4 weeks. After 4 weeks of treatment, there was over 25% reduction of visceral (perigondal, perirenal and mesenteric fad pad) and subcutaneous (inguinal fat pad) fat mass (FIG. 15A) in comparison with the control mice injected with the vehicle (saline).
(§1) Obesity is highly associated with insulin resistance. We therefore conducted both in vivo and in vitro study to determine whether N-ABD094-rhArg (SEQ ID NO: 50) treatment will have effects on insulin sensitivity. […] At 24-hour after culture in N-ABD094-rhArg (SEQ ID NO: 50) or control (without addition of N-ABD094-rhArg) medium, primary hepatocytes were stimulated with 100 nM insulin for 20 min. Cells were then collected for Western blot analysis to detect phosphorylated protein kinase B (pAkt), which is commonly used as marker of insulin signaling.

[2] = DIO mice treated with 600U for 20 weeks; type: in vivo, C57BL/6J male mice
From the text: Together, these findings support that N-ABD094-rhArg (SEQ ID NO: 50) is safe and effective for long term use.

[3] = tested on: mouse primary hepatocytes; experiment: Mouse primary hepatocytes: MTT viability and pAkt Western blot; type: cell-based
Experimental: Data are expressed as mean±SEM, n=5 for each group. […] (C) Western blot analysis of protein levels of phosphorylated Akt (pAkt) (marker of insulin signaling) in […] […] Lane 1: con; Lane 2: 5U/mL N-ABD094-rhArg (SEQ ID NO: 50); Lane 3: 100 nM insulin; Lane 4: 5U/mL N-ABD094-rhArg (SEQ ID NO: 50) +100 nM insulin.
as §1, with “At 24-hour after culture in N-ABD094-rhArg (SEQ ID NO: 50) or control (without addition of N-ABD094-rhArg) medium, primary hepatocytes were stimulated with 100 nM insulin for 20 min.” left out

[4] = Arginase specific activity, DAMO colorimetric assay; type: biochemical; settings: 37° C., pH 7.4, purified preparation
From the text: The arginase activity of the fusion proteins described herein can be substantially the same, lower, or higher than the activity of the arginase polypeptide from which it is derived. One unit of arginase activity is defined as the amount of fusion protein [e.g., BHA (SEQ ID NO; 75), BAH (SEQ ID NO: 76), N-ABD-rhArg (SEQ ID NO: 49), or N-ABD094-rhArg (SEQ ID NO: 50)] or arginase [e.g., BCA (SEQ ID NO: 70)] that catalyzes the production of 1 μmol of urea per min under standard assay conditions. The specific activity of the enzyme is expressed as activity units per mg of protein. Under standard diacetylmonoxime (DAMO) assay conditions (37° C., pH 7.4), the fusion proteins can have a specific activity that is about 5%, about 10%, about 15%, about 20%, about 25% about 30%, about 35% or about 40% lower or higher than the corresponding arginase polypeptide which it incorporates. In certain embodiments, fusion proteins can have a specific activity that is about 5% to about 40%, about 10% to about 40%, about 10% to about 35%, about 10% to about 30%, about 20% to about 30%, about 20% to about 35%, about 15% to about 30%, about 15% to about 25%, or about 10% to about 20% lower or higher than the corresponding arginase polypeptide which it incorporates.
One unit of enzyme activity is defined as the amount of enzyme (BCA, BHA or BAH) that catalyzes the production of 1 μmol urea per min under standard assay conditions. Specific activity of the enzyme is expressed as activity units per mg of protein.
Briefly, a serial dilution of 0.3 mL BCA solutions together with 0.15 mL water and 720 mM arginine substrate at pH 7.4 was pre-incubated separately at 37° C. for 10 min. The enzymatic reaction was carried out by adding 0.3 mL arginine substrate to the pre-incubated enzyme solutions. […]
The urea formed from the above reaction was quantified using the DAMO direct colorimetric method described by World Health Organization (WHO). […] The absorbance at 540 nm was measured. […]

[5] = Blood pressure by tail cuff method in DIO mice; type: in vivo; settings: 600U at 7-day intervals for 5 weeks
From the text: Obesity is associated with cardiovascular disease and hypertension. DIO mice treated with 600U N-ABD094-rhArg (SEQ ID NO: 50) at 7-day intervals for 5 weeks were subjected to measurement of blood pressure by tail cuff method using the CODA Non-invasive Blood Pressure System (Kents Scientific Corporation).

[6] = 500U at 10-day intervals, 4 weeks

B1: N-ABD094-rhArg: albumin binding domain ABD094 fused N-terminally to recombinant human arginase I, SEQ ID NO: 50 (protein)
chain: MHHHHHHDEAVDANSLAEAKEAANAELDSYGVSDFYKRLIDKAKTVEGVEALKDAILAALPSGSNNNNNNGSGGMSAKSRTIGIIGAPFSKGQPRGGVEEGPTVLRKAGLLEKLKEQECDVKDYGDLPFADIPNDSPFQIVKNPRSVGKASEQLAGKVAEVKKNGRISLVLGGDHSLAIGSISGHARVHPDLGVIWVDAHTDINTPLTTTSGNLHGQPVSFLLKELKGKIPDVPGFSWVTPCISAKDIVYIGLRDVDPGEHYILKTLGIKYFSMTEVDRLGIGKVMEETLSYLLGRKKRPIHLSFDVDGLDPSFTPATGTPVVGGLTYREGLYITEEIYKTGLLSGLDIMEVNPSLGKTPEEVTRTVNTAVAITLACFGLAREGNHKPIDYLNPPK
modifications: Mn2+; N-ABD094-rhArg, Synthesized in the Lab
With B1 the “mRNA levels of Acc1, Fasn, Scd1 in visceral WAT and liver” value [1, 6] was “dramatically suppressed”, the “size of adipocytes in visceral WAT (histology)” value [1, 6] was “prominent reduction” and the “reduction of visceral and subcutaneous fat mass vs vehicle” value ([1]; 500U i.p. at 10-day intervals, after 4 weeks) was “over 25%”. For the same molecule, the “insulin sensitivity in insulin tolerance test (ITT)” value ([1]; after 2 weeks of treatment) was “significant increase”, the plasma arginine concentrations ([2]; 600U for 20 weeks, Biochrom 30 detection limit) was less than 3 µM and the bodyweight ([2]; 600U, by 5 weeks, maintained to 20 weeks without rebound) was “reduced to a level similar to the lean control mice”. The “phosphorylation of Akt upon insulin stimulation” value ([3]; 5U/mL 24 hr, then 100 nM insulin 20 min) was “prominent increase”, the “cell viability (MTT)” value ([3]; 5U/mL, 48 hr) was “did not affect cell viability” and the Specific activity [4] was 184 U/mg. For the same molecule, the “systolic and diastolic blood pressure and heart rate vs vehicle-treated DIO mice” value [5] was “significantly lower”.
